Source: publication PMC4626869, “Subcellular trafficking of guanylyl cyclase/natriuretic peptide receptor-A with concurrent generation of intracellular cGMP” (Bioscience Reports, 2015)
Where no end group is shown, it is not given here.

Target: T1, enhanced GFP-tagged guanylyl cyclase/natriuretic peptide receptor-A (eGFP–NPRA fusion protein) (mouse, UniProt P18293 29-1057)
T1 sequence (looked up): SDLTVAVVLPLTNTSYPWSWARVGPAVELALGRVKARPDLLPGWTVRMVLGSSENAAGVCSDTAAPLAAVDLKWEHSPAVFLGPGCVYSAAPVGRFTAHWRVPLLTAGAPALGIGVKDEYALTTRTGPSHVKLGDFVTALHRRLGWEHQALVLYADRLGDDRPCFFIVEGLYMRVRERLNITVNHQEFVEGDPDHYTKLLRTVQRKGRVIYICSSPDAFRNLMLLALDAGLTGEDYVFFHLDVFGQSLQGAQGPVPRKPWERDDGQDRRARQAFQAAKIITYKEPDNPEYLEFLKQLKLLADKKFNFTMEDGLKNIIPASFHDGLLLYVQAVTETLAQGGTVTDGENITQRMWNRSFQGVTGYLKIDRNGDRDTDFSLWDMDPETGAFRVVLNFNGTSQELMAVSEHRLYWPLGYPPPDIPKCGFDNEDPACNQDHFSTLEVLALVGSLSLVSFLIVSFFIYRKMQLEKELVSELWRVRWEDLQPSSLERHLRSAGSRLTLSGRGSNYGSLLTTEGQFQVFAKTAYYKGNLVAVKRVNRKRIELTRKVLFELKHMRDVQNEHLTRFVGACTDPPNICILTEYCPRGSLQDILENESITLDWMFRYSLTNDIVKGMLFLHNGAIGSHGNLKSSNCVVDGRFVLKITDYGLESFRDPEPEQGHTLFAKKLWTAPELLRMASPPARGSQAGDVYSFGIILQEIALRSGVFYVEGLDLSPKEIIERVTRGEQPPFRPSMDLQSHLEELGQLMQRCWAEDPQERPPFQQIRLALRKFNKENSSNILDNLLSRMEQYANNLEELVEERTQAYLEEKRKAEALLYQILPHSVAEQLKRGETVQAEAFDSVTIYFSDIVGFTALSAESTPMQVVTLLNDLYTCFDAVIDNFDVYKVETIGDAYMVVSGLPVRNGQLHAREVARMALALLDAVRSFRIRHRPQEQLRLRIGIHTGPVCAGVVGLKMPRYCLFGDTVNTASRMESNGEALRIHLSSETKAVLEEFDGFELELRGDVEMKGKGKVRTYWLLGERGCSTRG
Experiment: cell-based or functional assay

cGMP immunofluorescence intensity in intact cells treated with 100 nM ANP (unlabelled) for 1, 5, 10, 15 and 30 min, fold over untreated cells: 27 fold
B1: Atrial natriuretic peptide (ANP), 125I-labelled (ligand, rat, UniProt P01161 123-150, looked up)
peptide: SLRRSSCFGGRIDRIGAQSGLGCNSFRY
modifications: ends and bridges not checked; also: 125I label (residue not given here)
